According to patent US20110165066A1 (AbbVie / Abbott, published 2011):
Positions count from the first letter of the chain named. Like-named read-outs stand apart in the source and are kept apart here. Each block holds one binder with its values, some of them ahead of it.

Experiments:
human IL-13 wild type [1] = target: T1, human IL-13 wild type (human, UniProt P35225 35-146); assay: cell-based or functional assay
[2] = target: T2, human IL-13 variant (R130Q) (human, UniProt P35225 35-146); assay: cell-based or functional assay
T2 sequence (P35225 35-146 limits assumed, stated change not applied): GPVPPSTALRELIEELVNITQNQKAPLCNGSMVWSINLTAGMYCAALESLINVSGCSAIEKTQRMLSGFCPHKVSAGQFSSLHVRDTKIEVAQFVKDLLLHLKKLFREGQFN

cynomolgus IL-13 = cynomolgus IL-13 (cynomolgus, UniProt Q0PW92 21-132); assay: cell-based or functional assay
cynomolgus IL-13, sequence (Q0PW92 entry or part of it): as the sequence (P35225 35-146 limits assumed, stated change not applied) above, with G1S, R10K, M42V, S67N, H83R, L100V counted along it

human IL-13 wild type [3] = target: T1, human IL-13 wild type; assay: SPR (Biacore), mAb captured, IL-13 as analyte
Experimental: (§1) The BIACORE assay (Biacore, Inc, Piscataway, N.J.) determines the affinity of antibodies with kinetic measurements of on-, off-rate constants. […] All chemicals were obtained from Biacore® AB (Uppsala, Sweden) or otherwise from a different source as described in the text. Approximately 5000 RU of goat anti-mouse IgG, (Fcγ), fragment specific polyclonal antibody (Pierce Biotechnology Inc, Rockford, Ill.) diluted in 10 mM sodium acetate (pH 4.5) was directly immobilized across a CM5 research grade biosensor chip using a standard amine coupling kit according to manufacturer's instructions and procedures at 25 μg/ml. Unreacted moieties on the biosensor surface were blocked with ethanolamine. Modified carboxymethyl dextran surface in flowcell 2 and 4 was used as a reaction surface. Unmodified carboxymethyl dextran without goat anti-mouse IgG in flow cell 1 and 3 was used as the reference surface. For kinetic analysis, rate equations derived from the 1:1 Langmuir binding model were fitted simultaneously to association and dissociation phases of all eight injections (using global fit analysis) with the use of Biaevaluation 4.0.1 software. Purified antibodies were diluted in HEPES-buffered saline for capture across goat anti-mouse IgG specific reaction surfaces. Mouse antibodies to be captured as a ligand (25 μg/ml) were injected over reaction matrices at a flow rate of 5 μl/min. The association and dissociation rate constants, kₒₙ (unit M⁻¹s⁻¹) and koff (unit s⁻¹) were determined under a continuous flow rate of 25 μl/min Rate constants were derived by making kinetic binding measurements at ten different antigen concentrations ranging from 10-200 nM. […] Binding is recorded as a function of time and kinetic rate constants are calculated.

[4] = target: T2, human IL-13 variant (R130Q); assay: SPR (Biacore), mAb captured, IL-13 as analyte
Experimental: as §1

mouse IL-13 = target: T3, mouse IL-13 (mouse, UniProt P20109 26-131, limits assumed); assay: indirect ELISA, captured mAb, biotinylated mouse IL-13
T3 construct: also called mIL-13; murine IL-13
T3 sequence (looked up): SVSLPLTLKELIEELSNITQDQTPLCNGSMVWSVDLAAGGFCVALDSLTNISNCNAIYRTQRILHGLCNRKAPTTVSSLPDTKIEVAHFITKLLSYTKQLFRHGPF
Experimental: Murine anti-human IL-13 mAbs were prepared at various concentrations ranging from 0.1 to 100 ng/ml in PBS containing 0.1% BSA; 50 ul of each antibody dilution was added to the coated ELISA plate and incubated for 1 hour at room temperature. Wells were washed 3 times with PBS containing 0.05% Tween-20. […] Wells were washed 3 times with PBS containing 0.05% Tween-20. Streptavidin HRP (Pierce #21126, Rockland, Ill.) was diluted 1:20000 in PBS containing 0.1% BSA; […] was added and the plates incubated for 1 hour at room temperature. Plates were washed 3 times with PBS containing 0.05% Tween-20. Fifty microliters of TMB solution (Sigma # T0440, St. Louis, Mo.) was added to each well and incubated for 10 minutes at room temperature. The reaction was stopped by addition of 1N sulphuric acid. Plates were read spectrophotmetrically at a wavelength of 450 nm.

human IL-13 wild type [5] = target: T1, human IL-13 wild type; assay: SPR (Biacore)
Experimental: as §1

human IL-13 wild type [6] = target: T1, human IL-13 wild type; assay: cell-based or functional assay; remark: listed apart in the source
[7] = target: T2, human IL-13 variant (R130Q); assay: cell-based or functional assay; remark: listed apart in the source
human IL-13 wild type [8] = target: T1, human IL-13 wild type; assay: cell-based or functional assay; remark: listed apart in the source

T1 sequence (P35225 other isoform, or with tags, fused parts or gaps limits assumed): as the sequence (P35225 35-146 limits assumed, stated change not applied) above, with Q110R counted along it

Average IC50, IL-13-induced TARC production by A-549 cells (human IL-13 wild type [1]): 0.284 nM | Average IC50, IL-13-induced TARC production by A-549 cells [2]: 0.54 nM | Average IC50, IL-13-induced TARC production by A-549 cells (cynomolgus IL-13): 6.11 nM | Kd (human IL-13 wild type [3]): 0.356 nM | koff (human IL-13 wild type [3]): 6.5e-05 s⁻¹ | kon (human IL-13 wild type [3]): 182000 M⁻¹ s⁻¹ | Kd [4]: 0.632 nM | koff [4]: 0.000155 s⁻¹ | kon [4]: 245000 M⁻¹ s⁻¹ | binding result (mouse IL-13): no binding (tested: 0.1 to 100 ng/ml)
B1: 22D10 (antibody, V domains shown)
VH: QVQLQQSGDDLVKPGASVKLSCKASGYTFTSYWINWIKQRPGQGLEWIGHIAPGSGETYDNEMFKDKAKLTVDTSSSTAYIHLSSLSSEDSAVYFCARGSFTFFYAMDYWGQGTSVTVSS
VL: DVLMTQTPLSLPVSLGDQASISCRSSQNIVHSNGKTYLEWYLQRPGQSPKLLIYKVSNRFSGVPDRFSGSGSGTDFTLKISRVEAEDLGVYYCFQGSHVPYTFGGGTKLEIKR

Kd (human IL-13 wild type [5]): 0.71 nM | koff (human IL-13 wild type [5]): 0.000474 s⁻¹ | kon (human IL-13 wild type [5]): 668000 M⁻¹ s⁻¹ | Potency (IC50), A-549 bioassay (human IL-13 wild type [6]): 0.868 nM | Potency (IC50), A-549 bioassay [7]: 0.369 nM
B2: 13C5.1 (antibody, human IgG1, V domains shown)
VH: EVTLKESGPVLVKPTETLTLTCTFSGFSLSTSDMGVDWIRQPPGKALEWLAHIWWDDVKRYNPALKSRLTISKDTSKSQVVLTMTNMDPVDTATYYCARTVSSGYIYYAMDYWGQGTTVTVSS
VL: DIQMTQSPSSLSASVGDRVTITCRASQDIRNYLNWYQRKPGKVVKLLIYYTSKLHSGVPSRFSGSGSGTDFTLTISSLQPEDVATYYCQQGNTLPLTFGGGTKVEIKR
notes: Humanized

Kd (human IL-13 wild type [5]): 0.0979 nM | koff (human IL-13 wild type [5]): 0.000123 s⁻¹ | kon (human IL-13 wild type [5]): 1.26e+06 M⁻¹ s⁻¹ | Potency (IC50), A-549 bioassay (human IL-13 wild type [6]): 0.193 nM | Potency (IC50), A-549 bioassay [7]: 0.13 nM
B3: 13C5.2 (antibody, human IgG1, V domains shown)
VH: B2 VH
VL: B2 VL with S7T, T22S, Y49F, F71Y, Y87F
notes: Humanized

Average IC50, IL-13-induced TARC production by A-549 cells (human IL-13 wild type [1]): 0.23 nM | Average IC50, IL-13-induced TARC production by A-549 cells [2]: 0.26 nM | Average IC50, IL-13-induced TARC production by A-549 cells (cynomolgus IL-13): 0.188 nM | Kd (human IL-13 wild type [3]): 0.0754 nM | koff (human IL-13 wild type [3]): 2.6e-05 s⁻¹ | kon (human IL-13 wild type [3]): 345000 M⁻¹ s⁻¹ | Kd [4]: 0.0631 nM | koff [4]: 8.45e-06 s⁻¹ | kon [4]: 134000 M⁻¹ s⁻¹ | binding result (mouse IL-13): no binding (tested: 0.1 to 100 ng/ml)
B4: 25C8 (antibody, V domains shown)
VH: QVQLQQPGAELVRPGASVQLSCKASGYTFTSSWIHWVNQRPGQGLEWIGMIHPSDSETRLNQKFKDKATLTVDKSSSTAYMQLSSPTSEDSAVYYCASTATDFDYWGQGTTLTVSS
VL: DVVLTQTPLSLPVNIGDQASISCKSTKSLLNSDGFTYLDWYLQKPGQSPQLLIYLVSNRFSGAPDRFSGSGSGTDFTLKISRVEAEDLGVYYCFQHNYLPLTFGAGTNLELKR

Average IC50, IL-13-induced TARC production by A-549 cells (human IL-13 wild type [8]): 0.123 nM
B5: 9C11-Chim (antibody, human IgG1, V domains shown)
VH: B4 VH with Q3R, Q19K
VL: B4 VL with K24R, K27Q, S28T, A63V, H96N, N108K

Average IC50, IL-13-induced TARC production by A-549 cells (human IL-13 wild type [1]): 0.705 nM | Average IC50, IL-13-induced TARC production by A-549 cells [2]: 0.29 nM | Average IC50, IL-13-induced TARC production by A-549 cells (cynomolgus IL-13): 0.291 nM | Kd (human IL-13 wild type [3]): 0.296 nM | koff (human IL-13 wild type [3]): 0.000483 s⁻¹ | kon (human IL-13 wild type [3]): 1.63e+06 M⁻¹ s⁻¹ | Kd [4]: 0.387 nM | koff [4]: 0.000584 s⁻¹ | kon [4]: 1.51e+06 M⁻¹ s⁻¹ | binding result (mouse IL-13): no binding (tested: 0.1 to 100 ng/ml)
B6: 5D3 (antibody, V domains shown)
VH: QVQLKESGPGLVAPSQSLSITCTVSGFSLTGYNINWVRQPPGKGLEWLGLIWGDGNTAFNSALKSRLSISKDNSKSQVFLKLNSLQTDDTARYYCARDGYYPYAIKYWGQGTSVTVSS
VL: NIVLTQSPASLAVSLGQRATISCRASETVDSYGNSFMHWYQQKPGQPPKLLIYLASNLESGVPARFSGSGSRTDFTLTIDPVEADDAATYYCQQNNEDPRTFGGGTKLEIKR
